Laboratory results as given in US20260035456A1 (SHANGHAI JEYOU PHARMACEUTICAL, published 2026).
Changes are numbered by the printed parent chain.

T1: biotin-labeled mouse ADM (mouse, not fully specified; biotin label (named mouse ADM-C-biotin in Example 1.4; position of the biotin not stated for the other lots))
T1 construct: Synthetic peptide; also called mouse ADM-C-biotin; mADM-Biotin
T1 peptide: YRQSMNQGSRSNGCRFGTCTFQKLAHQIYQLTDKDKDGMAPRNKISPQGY

T2: biotin-labeled human ADM (human, not fully specified; biotin label (named human ADM-C-biotin in Example 1.4; position of the biotin not stated for the other lots))
T2 construct: Synthetic peptide; also called human ADM-C-biotin; hADM-Biotin
T2 peptide: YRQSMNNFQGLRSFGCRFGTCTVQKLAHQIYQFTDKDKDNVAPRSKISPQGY

B1: Ab2004.Am36 (IgG1 antibody) (antibody, V domains shown)
VH: QVQLVQSGAEVKKPGASVKVSCKASGYTFTQYGIAWVRQAPGQGLEWMGWISAYQGNTNYAQKLQGRVTMTRDTSTSTAYMELRSLRSDDTAVYYCAREGRWGGSFNIWGQGTMVTVSS
VL: DIQMTQSPSSLSASVGDRVTITCRASQGISSYLAWYQQKPGKAPKLLIYDASNVDTGVPSRFSGSGSGTDFTFTISSLQPEDIATYYCQQYDNLPLTFGGGTKVEIKR
notes: Expressed in CHO cells, human IgG1/kappa
B2: Ab2004.Am38 (IgG1 antibody) (antibody, V domains shown)
VH: B1 VH with Q31S, A35S, A53P, Q55T, N57K
VL: B1 VL with A51T, N53D, V54L
notes: as for B1
B3: Ab2004.Am32 (IgG1 antibody) (antibody, V domains shown)
VH: B1 VH
VL: B1 VL with S26A, Q27E, S30G, V54L, D55E
notes: as for B1
B4: fully human antibody Ab2004.Am01 (expressed antibody) (antibody, V domains shown)
VH: B1 VH with Q31S, A35S
VL: DIQMTQSPSSLSASVGDRVTITCRASQGISSYLAWYQQKPGKAPKLLIYDASNLETGVPSRFSGSGSGTDFTFTISSLQPEDIATYYCQQYDNLPLTFGGGTKVEIK
notes: also called parent antibody Ab2004.Am01
B5: Ab2004.Am37 (IgG1 antibody) (antibody, V domains shown)
VH: B1 VH with Q31S, A35S, A53P, Q55T, N57K
VL: B1 VL with A51V, N53I, V54L, T56A
notes: as for B1
B6: Ab2004.Am39 (IgG1 antibody) (antibody, V domains shown)
VH: B1 VH with Q31H
VL: B1 VL with V54L, D55E, N93D, P95D
notes: as for B1
B7: Ab2004.Am40 (IgG1 antibody) (antibody, V domains shown)
VH: B1 VH
VL: B1 VL with V54L, D55E, N93D, T97S
notes: as for B1
B8: Ab2004.Am31 (IgG1 antibody) (antibody, V domains shown)
VH: B1 VH
VL: B1 VL with Q27E, S31E, V54L, D55E
notes: as for B1
B9: Ab2004.Am34 (IgG1 antibody) (antibody, V domains shown)
VH: B1 VH with Q31H
VL: B1 VL with A51V, N53I, V54L, T56A
notes: as for B1
B10: Ab2004.Am33 (IgG1 antibody) (antibody, V domains shown)
VH: B1 VH with Q31S, A35S, A53P, Q55S
VL: B1 VL with Q27E, S31E, V54L, D55E
notes: as for B1
B11: Ab2004.Am35 (IgG1 antibody) (antibody, V domains shown)
VH: B1 VH
VL: B1 VL with A51V, N53I, V54L, T56A
notes: as for B1
B12: Enibarcimab (antibody, V domains shown)
VH: QVQLVQSGAEVKKPGSSVKVSCKASGYTFSRYWIEWVRQAPGQGLEWIGEILPGSGSTNYNQKFQGRVTITADTSTSTAYMELSSLRSEDTAVYYCTEGYEYDGFDYWGQGTTVTVSS
VL: DVVLTQSPLSLPVTLGQPASISCRSSQSIVYSNGNTYLEWYLQRPGQSPRLLIYRVSNRFSGVPDRFSGSGSGTDFTLKISRVEAEDVGVYYCFQGSHIPYTFGGGTKLEIKR
B13: humanized antibody 2004hz97 (antibody, human IgG1, kappa)
heavy: not shown
light: DVVMTQSPLSLPVTLGQPASISCRSSQSIIDSDGNTYLEWYQQRPGQSPRLLIYKVSNRFSGVPDRFSGSGSGTDFTLKISRVEAEDFGVYYCFQGSHFPYTFGQGTKLEIKRTVAAPSVFIFPPSDEQLKSGTASVVCLLNNFYPREAKVQWKVDNALQSGNSQESVTEQDSKDSTYSLSSTLTLSKADYEKHKVYACEVTHQGLSSPVTKSFNRGEC
notes: Human IgG1/kappa
B14: humanized antibody 2004hz99 (antibody, human IgG1, kappa)
heavy: not shown
light: B13 light with V3L, G104A
notes: Human IgG1/kappa
B15: chimeric antibody 2004hz00 (antibody, human IgG1, kappa)
heavy: not shown
light: DVLMTQTPFSLPVSLGDQASISCRSSQSIIDSDGNTYLEWYLQKPGQSPKLLIYKVSNRFSGVPDRFSGSGSGTDFTLRISRVEAEDLGVYYCFQGSHFPYTFAGGTKLELKRTVAAPSVFIFPPSDEQLKSGTASVVCLLNNFYPREAKVQWKVDNALQSGNSQESVTEQDSKDSTYSLSSTLTLSKADYEKHKVYACEVTHQGLSSPVTKSFNRGEC
notes: Human IgG1/kappa

Biological target: T1, biotin-labeled mouse ADM
Assay: BLI (Octet RED96e), as in Example 3
Procedure: (§1) The affinity of antibodies 2004hz00, 2004hz97, and 2004hz99 for biotin-labeled human and mouse ADM (human ADM Cat. No. 894757, mouse ADM Cat. No. 894758, synthesized by GLBiochem) was determined by adopting Octet RED96e (Fortebio). The antigens and the antibodies were all diluted with 1× PBST (1× PBS: Sangon, B548117-0500; 0.02% Tween 20: sigma, P1379), the concentration of the antibody used was 100 nM, and the concentration of the antigen used was 2 μg/mL. The candidate antibody sample was added to a 96-well plate (Greiner bio-one, 655209) at 200 μL/well, the software parameters were set, the temperature was 30° C., and the standard kinetic signal was collected at a frequency of 5.0 Hz; and an SA sensor (Fortebio, Cat. No. 18-5020) was pre-wetted with 1× PBST for 10 min and then tested on a machine.
(§2) The equilibrium dissociation constants (KD) of the antibodies were calculated by measuring the association rates (Kon) and the dissociation rates (Koff) of the antigen-antibody in a 1:1 binding manner by adopting the Data Analysis 12.0 software from Fortebio.
(§3) Similar to Example 3, the affinity of the affinity-matured antibodies Ab2004.Am31 -Ab2004.Am40 and the parent antibody Ab2004.Am01 for human and mouse ADM was further determined, respectively, and the results are shown in Table 10. It can be seen from Table 10 […].

Kd [pM]	Response value	koff [s⁻¹]	kon [M⁻¹ s⁻¹]	Binder
518	2.75	0.000221	427000	B1
467	2.88	0.000342	733000	B2
474	2.76	0.000219	461000	B3
2210	2.35	0.000956	434000	B4
469	2.85	0.00033	703000	B5
489	2.7	0.000266	543000	B6
492	2.65	0.000253	513000	B7
412	2.81	0.000221	537000	B8
451	2.78	0.000222	492000	B9
474	2.8	0.000365	769000	B10
452	2.74	0.000206	456000	B11
497	2.75	0.000297	597000	B12

Biological target: T2, biotin-labeled human ADM
Assay: BLI (Octet RED96e), as in Example 3
Procedure: as §1, §2, §3

Kd [pM]	Response value	koff [s⁻¹]	kon [M⁻¹ s⁻¹]	Binder
291	2.7	0.000108	372000	B1
255	2.83	0.00016	626000	B2
340	2.53	0.000146	430000	B3
766	2.34	0.000233	305000	B4
256	2.88	0.00015	587000	B5
178	2.57	8.33e-05	468000	B6
352	2.66	0.000158	449000	B7
288	2.64	0.000141	491000	B8
154	2.61	6.81e-05	444000	B9
316	2.63	0.000214	676000	B10
281	1.96	0.000119	423000	B11
567	2.07	0.000382	673000	B12

Biological target: T1, biotin-labeled mouse ADM
Assay: BLI (Octet RED96e), biotinylated antigen on SA sensor, antibody 100 nM, 1:1 fit
Procedure: as §1, §2

Kd [pM]	Response value	koff [s⁻¹]	kon [M⁻¹ s⁻¹]	Binder
489	3	0.000231	472000	B13
418	3.06	0.000194	465000	B14
454	3.19	0.000196	432000	B15

Biological target: T2, biotin-labeled human ADM
Assay: as above
Procedure: as §1, §2

Kd [pM]	Response value	koff [s⁻¹]	kon [M⁻¹ s⁻¹]	Binder
546	2.39	0.000252	461000	B13
429	2.58	0.000201	468000	B14
457	2.69	0.000201	441000	B15
